B1: Rco1 (natural protein)
chain: MDTSKKDTTRSPSHSNSSSPSSSSLSSSSSKEKKRPKRLSSQNVNYDLKRRKIITSEGIERSFKNEHSNLAVEDNIPEEEPKELLEKDSKGNIIKLNEPSTISEDSKVSVTGLPLNKGPSEKIKRESLWNYRKNLGGQSNNSEMTLVPSKRFTQVPKNFQDLNRNDLKTFLTENMTEESNIRSTIGWNGDIINRTRDREPESDRDNKKLSNIRTKIILSTNATYDSKSKLFGQNSIKSTSNASEKIFRDKNNSTIDFENEDFCSACNQSGSFLCCDTCPKSFHFLCLDPPIDPNNLPKGDWHCNECKFKIFINNSMATLKKIESNFIKQNNNVKIFAKLLFNIDSHNPKQFQLPNYIKETFPAVKTGSRGQYSDENDKIPLTDRQLFNTSYGQSITKLDSYNPDTHIDSNSGKFLICYKCNQTRLGSWSHPENSRLIMTCDYCQTPWHLDCVPRASFKNLGSKWKCPLHSPTKVYKKIHHCQEDNSVNYKVWKKQRLINKKNQLYYEPLQKIGYQNNGNIQIIPTTSHTDYDFNQDFKITQIDENSIKYDFFDKIYKSKMVQKRKLFQFQESLIDKLVSNGSQNGNSEDNMVKDIASLIYFQVSNNDKSSNNKSASKSNNLRKLWDLKELTNVVVPNELDSIQFNDFSSDEIKHLLYLKKIIESKPKEELLKFLNIENPENQSE
B2: Ume1 (natural protein)
chain: MSTLDIAEDNKIKNEEFKIWKKSIPSLYQHISSLKPIFGSGVDESPSTLRSIVFTNDSSCNKSKGVLSVPLLYSQGSEIFEVDCIVPLGLHYKKPESISEPLVQPDYTMESQKVEQTVLIPKWEFKGETIAKMIYVDNSEINVKVIALSTNGSLAWFREGVKSPVYTMMEPSTSLSSASSGNQNKPCVDFAISNDSKTLTVTKEKHLDNENATIKLIDNSGKIGEVLRTIPVPGIKNIQEIKFLNNQIFATCSDDGIIRFWGNEIGKKPLWILNDSLDGKTTCFAASPFVDTLFMTGTSGGALKVWDIRAVIALGDADAELNINQGHNKVNELFKVHHFYSEQVSKIEFSSISPMEVVTIGGLGNVYHWNFEPVFAIYNEIHEDFQGIISDELEAESMAFYHTEGCRREIGENNKVNTVAYHKYIEDLVATVDSDGLLTVYKPFTGKVLDGSREVGAAKS
B3: Eaf3 (natural protein)
chain: MVDLEQEFALGGRCLAFHGPLMYEAKILKIWDPSSKMYTSIPNDKPGGSSQATKEIKPQKLGEDESIPEEIINGKCFFIHYQGWKSSWDEWVGYDRIRAYNEENIAMKKRLANEAKEAKKSLLEQQKKKKLSTSLGGPSNGGKRKGDSRSNASISKSTSQSFLTSSVSGRKSGRSSANSLHPGSSLRSSSDQNGNDDRRRSSSLSPNMLHHIAGYPTPKISLQIPIKLKSVLVDDWEYVTKDKKICRLPADVTVEMVLNKYEHEVSQELESPGSQSQLSEYCAGLKLYFDKCLGNMLLYRLERLQYDELLKKSSKDQKPLVPIRIYGAIHLLRLISVLPELISSTTMDLQSCQLLIKQTEDFLVWLLMHVDEYFNDKDPNRSDDALYVNTSSQYEGVALGM
B4: Rpd3 (enzyme)
chain: MVYEATPFDPITVKPSDKRRVAYFYDADVGNYAYGAGHPMKPHRIRMAHSLIMNYGLYKKMEIYRAKPATKQEMCQFHTDEYIDFLSRVTPDNLEMFKRESVKFNVGDDCPVFDGLYEYCSISGGGSMEGAARLNRGKCDVAVNYAGGLHHAKKSEASGFCYLNDIVLGIIELLRYHPRVLYIDIDVHHGDGVEEAFYTTDRVMTCSFHKYGEFFPGTGELRDIGVGAGKNYAVNVPLRDGIDDATYRSVFEPVIKKIMEWYQPSAVVLQCGGDSLSGDRLGCFNLSMEGHANCVNYVKSFGIPMMVVGGGGYTMRNVARTWCFETGLLNNVVLDKDLPYNEYYEYYGPDYKLSVRPSNMFNVNTPEYLDKVMTNIFANLENTKYAPSVQLNHTPRDAEDLGDVEEDSAEAKDTKGGSQYARDLHVEHDNEFY

How the values were obtained:
Test in all cases: cryo-EM structure
cryo-EM structure = molecular target: the molecule itself
Sin3 = Sin3 (S. cerevisiae, UniProt P22579 1-1536)
Chain of Sin3 (P22579 whole entry): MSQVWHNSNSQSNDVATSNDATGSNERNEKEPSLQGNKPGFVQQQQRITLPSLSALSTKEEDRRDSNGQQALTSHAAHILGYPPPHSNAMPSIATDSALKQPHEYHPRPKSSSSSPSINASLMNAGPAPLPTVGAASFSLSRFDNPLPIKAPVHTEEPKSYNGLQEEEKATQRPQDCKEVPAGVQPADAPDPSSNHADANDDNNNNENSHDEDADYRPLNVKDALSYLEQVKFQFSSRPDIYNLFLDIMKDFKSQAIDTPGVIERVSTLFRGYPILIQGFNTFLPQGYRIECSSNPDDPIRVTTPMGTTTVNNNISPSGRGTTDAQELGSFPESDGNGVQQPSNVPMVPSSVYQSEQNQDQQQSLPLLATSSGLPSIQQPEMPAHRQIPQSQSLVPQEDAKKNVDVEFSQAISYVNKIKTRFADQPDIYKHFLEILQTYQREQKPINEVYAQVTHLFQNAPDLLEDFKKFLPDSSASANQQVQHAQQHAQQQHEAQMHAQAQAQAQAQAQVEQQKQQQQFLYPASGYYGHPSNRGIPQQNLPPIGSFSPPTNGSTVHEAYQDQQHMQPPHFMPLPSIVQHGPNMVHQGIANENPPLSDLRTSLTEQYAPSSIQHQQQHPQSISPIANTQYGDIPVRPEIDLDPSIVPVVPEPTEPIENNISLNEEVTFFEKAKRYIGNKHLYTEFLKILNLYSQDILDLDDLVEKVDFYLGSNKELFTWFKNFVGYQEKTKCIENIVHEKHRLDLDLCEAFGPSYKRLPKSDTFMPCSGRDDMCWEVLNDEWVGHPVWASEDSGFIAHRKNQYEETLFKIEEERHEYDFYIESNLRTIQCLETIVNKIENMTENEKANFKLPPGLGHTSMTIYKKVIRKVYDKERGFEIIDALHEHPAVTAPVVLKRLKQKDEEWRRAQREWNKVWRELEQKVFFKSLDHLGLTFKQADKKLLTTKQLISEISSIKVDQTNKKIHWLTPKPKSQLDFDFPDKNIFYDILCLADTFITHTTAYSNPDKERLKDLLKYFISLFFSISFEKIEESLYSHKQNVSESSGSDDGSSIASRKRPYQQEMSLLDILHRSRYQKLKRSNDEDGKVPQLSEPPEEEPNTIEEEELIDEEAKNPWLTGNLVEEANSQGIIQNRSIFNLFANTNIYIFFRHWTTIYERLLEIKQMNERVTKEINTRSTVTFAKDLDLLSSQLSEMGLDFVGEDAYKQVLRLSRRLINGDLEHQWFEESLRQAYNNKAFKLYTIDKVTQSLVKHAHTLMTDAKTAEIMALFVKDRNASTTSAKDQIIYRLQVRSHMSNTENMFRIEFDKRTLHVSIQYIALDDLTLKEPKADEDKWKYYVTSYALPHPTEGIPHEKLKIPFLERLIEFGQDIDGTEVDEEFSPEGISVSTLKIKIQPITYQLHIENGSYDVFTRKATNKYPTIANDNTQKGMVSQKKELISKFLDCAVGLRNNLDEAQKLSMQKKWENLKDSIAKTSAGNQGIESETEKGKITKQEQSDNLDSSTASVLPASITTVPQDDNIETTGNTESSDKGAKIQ

Rco1 = molecular target: B1
Ume1 = molecular target: B2

Row | Binder | binding result (cryo-EM structure) | binding result (Sin3) | binding result (Rco1) | binding result (Ume1)
1 | B1 | binds | binds |  | 
2 | B2 |  | binds |  | 
3 | B3 |  |  | binds | binds
4 | B4 |  | binds | binds | 
